Source: patent publication US20120269821A1 (published 2012)

Legend:
CAP206.1.B5 envelope [1] = target: CAP206.1.B5 envelope (HIV-1); experiment: cell-based or functional assay; set-up: unit not given beside the values
ZM197M.PB7 envelope [2] = target: ZM197M.PB7 envelope (HIV-1); experiment: cell-based or functional assay; set-up: unit not given beside the values
Du156.12 envelope [3] = target: Du156.12 envelope (HIV-1); experiment: cell-based or functional assay; set-up: unit not given beside the values
TRO.11 envelope = TRO.11 envelope (HIV-1); experiment: cell-based or functional assay; set-up: unit not given beside the values
QH0692.42 envelope [4] = target: QH0692.42 envelope (HIV-1); experiment: cell-based or functional assay; set-up: unit not given beside the values
Du422.1 envelope [5] = target: Du422.1 envelope (HIV-1); experiment: cell-based or functional assay; set-up: unit not given beside the values
CAP206.1.B5 envelope [6] = target: CAP206.1.B5 envelope (HIV-1); experiment: cell-based or functional assay
ZM197M.PB7 envelope [7] = target: ZM197M.PB7 envelope (HIV-1); experiment: cell-based or functional assay
Du156.12 envelope [8] = target: Du156.12 envelope (HIV-1); experiment: cell-based or functional assay
QH0692.42 envelope [9] = target: QH0692.42 envelope (HIV-1); experiment: cell-based or functional assay
Du422.1 envelope [10] = target: Du422.1 envelope (HIV-1); experiment: cell-based or functional assay
SC422661.8 envelope = SC422661.8 envelope (HIV-1); experiment: cell-based or functional assay
HIV-1 gp41 = HIV-1 gp41 (HIV-1); experiment: antigen panel (luminex assay per paragraph 163); unit not given
MOJO gp140 = target: T1, MOJO gp140 (HIV-1); experiment: as above
T1 construct: domain: gp140

hepatitis E2 protein = hepatitis E2 protein (Hepatitis C); experiment: as above

B1: CAP206-CH12 (antibody, V domains shown)
VH: QVQLVQSGAEVKKPGSSVKLSCKASGGTFGSYSVTWVRQAPGQTFEWVGRIVPWVGVPNYAPKFQGRVTITADKSSTVYMELTSLRFEDTAVYYCATAYEASGLSYYYYMDDWGKGTTVTVSS
VL: EIVLTQSPGTLSLSPGERATLSCRASQSVTSSYLAWFRHKPGQAPRLLIYGASYRGTGIPDRISGSGSGTDFTLTISRLEPEDFAVYYCQHYGGSPGMYTFGQGTRLEIK
notes: also called mAb 2311; 2311
IC50 in TZM-bl cells (CAP206.1.B5 envelope [1]): 5.9 | IC50 in TZM-bl cells (ZM197M.PB7 envelope [2]): 13 | IC50 in TZM-bl cells (Du156.12 envelope [3]): 14.9 | IC50 in TZM-bl cells (TRO.11 envelope): 17.5 | IC50 in TZM-bl cells (QH0692.42 envelope [4]): > 32 | IC50 in TZM-bl cells (Du422.1 envelope [5]): > 32 | IC50 in TZM-bl/FcγRI cells (CAP206.1.B5 envelope [6]): 700 µg/mL | IC50 in TZM-bl/FcγRI cells (ZM197M.PB7 envelope [7]): 300 µg/mL | IC50 in TZM-bl/FcγRI cells (Du156.12 envelope [8]): 600 µg/mL | IC50 in TZM-bl/FcγRI cells (QH0692.42 envelope [9]): > 32000 µg/mL | IC50 in TZM-bl/FcγRI cells (Du422.1 envelope [10]): 2700 µg/mL | IC50 in TZM-bl/FcγRI cells (SC422661.8 envelope): 400 µg/mL | reactivity (HIV-1 gp41): 1980 | reactivity (MOJO gp140): 2910 | reactivity (hepatitis E2 protein): 855
